From patent US20120058051A1 (US Dept. of Health and Human Services, published 2012)

Assays:
[1] = target: T1, Fc-hROR1(d2d3) (human, UniProt Q01973 161-406, limits assumed); test: ELISA, coated domain construct
T1 construct: domain: d2-Frizzled and d3-Kringle; Order from the name; not shown: human Fc region

[2] = target: T2, Fc-hROR1(d2) (human, UniProt Q01973 161-307, limits assumed); test: ELISA, coated domain construct
T2 construct: domain: d2-Frizzled; Order from the name; not shown: human Fc region
T2 sequence (Q01973 161-307 limits assumed): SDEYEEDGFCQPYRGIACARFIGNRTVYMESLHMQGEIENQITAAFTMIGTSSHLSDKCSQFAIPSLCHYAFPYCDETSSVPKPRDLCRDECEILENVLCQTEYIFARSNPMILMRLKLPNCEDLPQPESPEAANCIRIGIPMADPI

[3] = target: T3, Fc-hROR(d3) (human, UniProt Q01973 308-406, limits assumed); test: ELISA, coated domain construct
T3 construct: domain: d3-Kringle; Order from the name; not shown: human Fc region
T3 sequence (Q01973 308-406 limits assumed): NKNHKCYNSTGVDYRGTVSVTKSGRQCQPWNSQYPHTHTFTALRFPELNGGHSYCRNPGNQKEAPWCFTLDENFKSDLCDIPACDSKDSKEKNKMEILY

[4] = target: T4, human ROR1-ECD (ROR1-derived extracellular domain fragment without Fc) (human, UniProt Q01973 30-406); test: SPR (BIACORE X100), ROR1-ECD coupled to CM5 chip, bivalent IgG injected, 1:1 Langmuir model
T4 construct: extracellular domain; also called hROR1ECD; ROR-ECD
T4 sequence (Q01973 30-406): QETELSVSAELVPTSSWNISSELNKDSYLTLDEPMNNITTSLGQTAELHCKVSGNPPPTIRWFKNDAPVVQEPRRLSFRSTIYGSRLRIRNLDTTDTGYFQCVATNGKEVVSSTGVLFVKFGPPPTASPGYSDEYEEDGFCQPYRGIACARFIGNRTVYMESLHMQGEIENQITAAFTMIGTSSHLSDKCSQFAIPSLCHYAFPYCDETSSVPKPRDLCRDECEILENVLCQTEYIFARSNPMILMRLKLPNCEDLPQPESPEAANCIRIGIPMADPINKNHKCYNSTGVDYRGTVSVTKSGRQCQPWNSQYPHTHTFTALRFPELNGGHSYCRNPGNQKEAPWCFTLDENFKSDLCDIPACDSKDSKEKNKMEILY

T1 sequence (Q01973 161-406 limits assumed): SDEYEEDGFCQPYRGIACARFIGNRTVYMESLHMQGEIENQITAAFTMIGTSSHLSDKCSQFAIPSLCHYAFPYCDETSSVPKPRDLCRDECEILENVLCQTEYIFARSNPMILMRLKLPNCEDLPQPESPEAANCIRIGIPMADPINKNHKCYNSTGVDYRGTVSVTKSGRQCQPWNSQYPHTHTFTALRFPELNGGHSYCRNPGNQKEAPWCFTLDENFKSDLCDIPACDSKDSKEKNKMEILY

B1: mouse monoclonal antibody (mAb) 2A2 (antibody, mouse IgG1, V domains shown)
VH: QVQLQQSGAELVRPGASVTLSCKASGYTFSDYEMHWVIQTPVHGLEWIGAIDPETGGTAYNQKFKGKAILTADKSSSTAYMELRSLTSEDSAVYYCTGYYDYDSFTYWGQGTLVTVSA
VL: DIVMTQSQKIMSTTVGDRVSITCKASQNVDAAVAWYQQKPGQSPKLLIYSASNRYTGVPDRFTGSGSGTDFTLTISNMQSEDLADYFCQQYDIYPYTFGGGTKLEIK
notes: also called mouse mAb 2A2
binding result [1]: no binding | binding result [2]: no binding | binding result [3]: no binding | Kd [4]: 0.1 nM
